Experimental data from article PMC9482650, “Quantitative fragmentomics allow affinity mapping of interactomes” (Nature Communications, 2022).

How the values were obtained:
Assay in all cases: holdup assay
Parameters in all cases: key: below the threshold = too weak to quantify, mostly under pKd 3.1 to 4
APBA1_1, Q02410 = molecular target: T1, APBA1_1, Q02410
T1 sequence (Q02410 651-752, limits assumed, looked up): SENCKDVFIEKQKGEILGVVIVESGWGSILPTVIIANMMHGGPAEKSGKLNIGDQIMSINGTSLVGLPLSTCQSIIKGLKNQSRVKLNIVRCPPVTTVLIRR

APBA1_2, Q02410 = molecular target: T2, APBA1_2, Q02410
T2 sequence (Q02410 742-832, limits assumed, looked up): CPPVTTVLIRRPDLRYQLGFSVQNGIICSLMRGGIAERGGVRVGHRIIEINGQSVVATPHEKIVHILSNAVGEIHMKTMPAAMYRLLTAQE

ARHGEF12, Q9NZN5-2 = molecular target: ARHGEF12, Q9NZN5-2
ARHGEF12, Q9NZN5-2, sequence (Q9NZN5 other isoform, or with tags, fused parts or gaps): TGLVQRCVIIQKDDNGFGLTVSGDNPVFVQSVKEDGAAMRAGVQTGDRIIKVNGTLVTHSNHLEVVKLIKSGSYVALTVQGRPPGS

DLG2_2, Q15700 = molecular target: DLG2_2, Q15700
DLG2_2, Q15700, sequence (Q15700 189-283): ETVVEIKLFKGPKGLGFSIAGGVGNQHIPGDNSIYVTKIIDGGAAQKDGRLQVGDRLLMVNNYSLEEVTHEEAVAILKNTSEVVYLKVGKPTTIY

DLG5_1, Q8TDM6 = molecular target: DLG5_1, Q8TDM6
DLG5_1, Q8TDM6, sequence (Q8TDM6 617-713): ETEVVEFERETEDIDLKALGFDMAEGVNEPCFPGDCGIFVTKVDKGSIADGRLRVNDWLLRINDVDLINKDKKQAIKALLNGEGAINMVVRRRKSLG

FRMPD2_2, Q68DX3 = molecular target: FRMPD2_2, Q68DX3
FRMPD2_2, Q68DX3, sequence (Q68DX3 944-1038): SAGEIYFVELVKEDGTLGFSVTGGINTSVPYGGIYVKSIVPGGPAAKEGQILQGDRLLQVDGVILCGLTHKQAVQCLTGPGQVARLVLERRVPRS

GOPC, Q9HD26 = molecular target: GOPC, Q9HD26
GRIP1_2, Q9Y3R0 = molecular target: T3, GRIP1_2, Q9Y3R0
T3 sequence (Q9Y3R0 145-248, limits assumed, looked up): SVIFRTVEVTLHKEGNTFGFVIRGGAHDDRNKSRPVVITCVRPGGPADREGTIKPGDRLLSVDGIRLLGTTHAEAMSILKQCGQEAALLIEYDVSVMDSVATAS

GRIP1_3, Q9Y3R0 = molecular target: T4, GRIP1_3, Q9Y3R0
T4 sequence (Q9Y3R0 247-346, limits assumed, looked up): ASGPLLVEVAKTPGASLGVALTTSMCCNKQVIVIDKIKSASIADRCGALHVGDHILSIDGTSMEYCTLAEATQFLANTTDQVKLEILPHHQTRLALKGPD

GRIP1_4, Q9Y3R0 = molecular target: T5, GRIP1_4, Q9Y3R0
T5 sequence (Q9Y3R0 467-571, limits assumed, looked up): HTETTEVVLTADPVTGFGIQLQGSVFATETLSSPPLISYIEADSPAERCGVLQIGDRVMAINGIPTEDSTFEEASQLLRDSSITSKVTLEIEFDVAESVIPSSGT

GRIP2_3, Q9C0E4 = molecular target: GRIP2_3, Q9C0E4
GRIP2_3, Q9C0E4, sequence (Q9C0E4 238-339): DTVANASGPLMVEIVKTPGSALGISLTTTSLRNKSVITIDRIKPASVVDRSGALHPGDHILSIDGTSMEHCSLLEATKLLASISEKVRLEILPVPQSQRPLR

HTRA4, P83105 = molecular target: T6, HTRA4, P83105
T6 sequence (P83105 378-476, limits assumed, looked up): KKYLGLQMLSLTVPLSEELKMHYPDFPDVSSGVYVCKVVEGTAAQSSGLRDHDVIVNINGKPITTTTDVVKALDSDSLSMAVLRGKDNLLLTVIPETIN

Inadl_2, Q8NI35 = molecular target: Inadl_2, Q8NI35
Inadl_2, Q8NI35, sequence (Q8NI35 238-335): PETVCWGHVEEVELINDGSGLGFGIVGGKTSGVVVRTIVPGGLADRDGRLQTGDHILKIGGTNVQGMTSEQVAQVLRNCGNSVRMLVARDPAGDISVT

Inadl_8, Q8NI35 = molecular target: Inadl_8, Q8NI35
Inadl_8, Q8NI35, sequence (Q8NI35 1425-1530): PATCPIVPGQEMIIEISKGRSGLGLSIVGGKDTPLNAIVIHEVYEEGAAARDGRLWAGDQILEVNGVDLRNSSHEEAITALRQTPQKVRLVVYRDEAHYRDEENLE

Inadl_9, Q8NI35 = molecular target: Inadl_9, Q8NI35
Inadl_9, Q8NI35, sequence (Q8NI35 1530-1615): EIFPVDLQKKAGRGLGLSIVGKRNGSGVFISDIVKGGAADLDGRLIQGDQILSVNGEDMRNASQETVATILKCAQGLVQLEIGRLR

LIN7A, O14910 = molecular target: T7, LIN7A, O14910
T7 sequence (O14910 103-200, limits assumed, looked up): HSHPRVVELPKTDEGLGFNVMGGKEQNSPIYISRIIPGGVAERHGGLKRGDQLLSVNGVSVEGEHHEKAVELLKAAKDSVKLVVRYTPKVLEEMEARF

LRRC7, Q96NW7 = molecular target: T8, LRRC7, Q96NW7
T8 sequence (Q96NW7 1440-1537, limits assumed, looked up): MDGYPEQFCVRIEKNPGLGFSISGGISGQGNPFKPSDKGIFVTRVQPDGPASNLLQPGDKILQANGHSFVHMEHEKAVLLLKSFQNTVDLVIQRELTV

MAGI2_2, Q86UL8 = molecular target: MAGI2_2, Q86UL8
MAGI2_2, Q86UL8, sequence (Q86UL8 410-522): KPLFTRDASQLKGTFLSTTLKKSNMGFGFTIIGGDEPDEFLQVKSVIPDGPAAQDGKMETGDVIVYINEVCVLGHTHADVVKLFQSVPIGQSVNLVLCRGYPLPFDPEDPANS

NHERF2_2, Q15599 = molecular target: NHERF2_2, Q15599
NHERF2_2, Q15599, sequence (Q15599 142-238): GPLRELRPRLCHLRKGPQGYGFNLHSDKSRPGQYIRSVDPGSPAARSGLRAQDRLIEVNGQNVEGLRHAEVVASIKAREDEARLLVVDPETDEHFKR

NOS1, P29475 = molecular target: NOS1, P29475
NOS1, P29475, sequence (P29475 9-101): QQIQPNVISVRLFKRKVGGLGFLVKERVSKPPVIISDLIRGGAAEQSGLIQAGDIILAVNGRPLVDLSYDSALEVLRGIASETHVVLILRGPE

PARD3B_1, Q8TEW8 = molecular target: T9, PARD3B_1, Q8TEW8
T9 sequence (Q8TEW8 196-299, limits assumed, looked up): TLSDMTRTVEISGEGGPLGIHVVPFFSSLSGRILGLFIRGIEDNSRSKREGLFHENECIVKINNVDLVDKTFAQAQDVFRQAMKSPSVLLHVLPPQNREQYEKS

PARD3_3, Q8TEW0 = molecular target: PARD3_3, Q8TEW0
PARD3_3, Q8TEW0, sequence (Q8TEW0 582-685): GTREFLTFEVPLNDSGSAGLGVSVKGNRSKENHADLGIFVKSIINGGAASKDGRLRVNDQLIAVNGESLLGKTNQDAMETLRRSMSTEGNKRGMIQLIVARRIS

PCLO, Q9Y6V0 = molecular target: T10, PCLO, Q9Y6V0
T10 sequence (Q9Y6V0 4491-4600, limits assumed, looked up): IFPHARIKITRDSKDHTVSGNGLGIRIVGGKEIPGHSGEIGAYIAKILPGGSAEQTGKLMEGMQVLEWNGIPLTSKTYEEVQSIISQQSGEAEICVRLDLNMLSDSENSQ

PDZRN4_1, Q6ZMN7 = molecular target: PDZRN4_1, Q6ZMN7
PDZRN4_1, Q6ZMN7, sequence (Q6ZMN7 213-318): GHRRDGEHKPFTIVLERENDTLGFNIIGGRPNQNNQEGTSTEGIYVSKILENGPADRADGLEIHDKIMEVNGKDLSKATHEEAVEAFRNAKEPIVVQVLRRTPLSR

PICK1, Q9NRD5 = molecular target: PICK1, Q9NRD5
PICK1, Q9NRD5, sequence (Q9NRD5 17-115): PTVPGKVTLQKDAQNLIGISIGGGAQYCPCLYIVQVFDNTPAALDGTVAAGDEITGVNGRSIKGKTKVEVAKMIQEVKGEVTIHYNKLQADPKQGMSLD

TIAM2, Q8IVF5 = molecular target: T11, TIAM2, Q8IVF5
T11 sequence (Q8IVF5 885-986, limits assumed, looked up): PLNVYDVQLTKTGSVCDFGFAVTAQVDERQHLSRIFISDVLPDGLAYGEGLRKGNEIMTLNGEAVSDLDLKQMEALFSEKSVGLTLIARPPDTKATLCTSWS

[1] = plain residues with an end cap or a label only (N-terminal biotin on a linker: ado-ado)
[2] = plain residues with an end cap or a label only (N-terminal biotin on a linker: (peg)3)

B1: KCNA7, Q96RP8 (peptide)
chain: PPGKHLVTEV
APBA1_1, Q02410; [1]
  pKd: below the threshold
APBA1_2, Q02410; [1]
  pKd: 4.17
ARHGEF12, Q9NZN5-2; [1]
  pKd: 5.22
DLG2_2, Q15700; [1]
  pKd: 5.01
DLG5_1, Q8TDM6; [1]
  pKd: below the threshold
FRMPD2_2, Q68DX3; [1]
  pKd: 4.51
GOPC, Q9HD26; [1]
  pKd: 3.68
GRIP1_2, Q9Y3R0; [1]
  pKd: below the threshold
GRIP1_3, Q9Y3R0; [1]
  pKd: below the threshold
GRIP1_4, Q9Y3R0; [1]
  pKd: below the threshold
GRIP2_3, Q9C0E4; [1]
  pKd: below the threshold
HTRA4, P83105; [1]
  pKd: 4.61
Inadl_2, Q8NI35; [1]
  pKd: below the threshold
Inadl_8, Q8NI35; [1]
  pKd: 3.98
Inadl_9, Q8NI35; [1]
  pKd: below the threshold
LIN7A, O14910; [1]
  pKd: below the threshold
LRRC7, Q96NW7; [1]
  pKd: 3.96
MAGI2_2, Q86UL8; [1]
  pKd: 4.32
NHERF2_2, Q15599; [1]
  pKd: below the threshold
NOS1, P29475; [1]
  pKd: 3.7
PARD3B_1, Q8TEW8; [1]
  pKd: below the threshold
PARD3_3, Q8TEW0; [1]
  pKd: below the threshold
PCLO, Q9Y6V0; [1]
  pKd: below the threshold
PDZRN4_1, Q6ZMN7; [1]
  pKd: below the threshold
PICK1, Q9NRD5; [1]
  pKd: below the threshold
TIAM2, Q8IVF5; [1]
  pKd: 4.01

B2: PLEKHA1, Q9HB21 (peptide)
chain: DDASLPVSDV
APBA1_1, Q02410; [1]
  pKd: below the threshold
APBA1_2, Q02410; [1]
  pKd: 3.89
ARHGEF12, Q9NZN5-2; [1]
  pKd: 4.36
DLG2_2, Q15700; [1]
  pKd: below the threshold
DLG5_1, Q8TDM6; [1]
  pKd: below the threshold
FRMPD2_2, Q68DX3; [1]
  pKd: 4.87
GOPC, Q9HD26; [1]
  pKd: 4.25
GRIP1_2, Q9Y3R0; [1]
  pKd: below the threshold
GRIP1_3, Q9Y3R0; [1]
  pKd: below the threshold
GRIP1_4, Q9Y3R0; [1]
  pKd: below the threshold
GRIP2_3, Q9C0E4; [1]
  pKd: below the threshold
HTRA4, P83105; [1]
  pKd: below the threshold
Inadl_2, Q8NI35; [1]
  pKd: below the threshold
Inadl_8, Q8NI35; [1]
  pKd: 4.94
Inadl_9, Q8NI35; [1]
  pKd: 3.59
LIN7A, O14910; [1]
  pKd: below the threshold
LRRC7, Q96NW7; [1]
  pKd: below the threshold
MAGI2_2, Q86UL8; [1]
  pKd: below the threshold
NHERF2_2, Q15599; [1]
  pKd: below the threshold
NOS1, P29475; [1]
  pKd: below the threshold
PARD3B_1, Q8TEW8; [1]
  pKd: below the threshold
PARD3_3, Q8TEW0; [1]
  pKd: below the threshold
PCLO, Q9Y6V0; [1]
  pKd: below the threshold
PDZRN4_1, Q6ZMN7; [1]
  pKd: below the threshold
PICK1, Q9NRD5; [1]
  pKd: below the threshold
TIAM2, Q8IVF5; [1]
  pKd: below the threshold

B3: TRIP6, Q15654 (peptide)
chain: ELSATVTTDC
APBA1_1, Q02410; [1]
  pKd: below the threshold
APBA1_2, Q02410; [1]
  pKd: below the threshold
ARHGEF12, Q9NZN5-2; [1]
  pKd: 4.44
DLG2_2, Q15700; [1]
  pKd: 3.59
DLG5_1, Q8TDM6; [1]
  pKd: below the threshold
FRMPD2_2, Q68DX3; [1]
  pKd: 3.47
GOPC, Q9HD26; [1]
  pKd: below the threshold
GRIP1_2, Q9Y3R0; [1]
  pKd: below the threshold
GRIP1_3, Q9Y3R0; [1]
  pKd: below the threshold
GRIP1_4, Q9Y3R0; [1]
  pKd: below the threshold
GRIP2_3, Q9C0E4; [1]
  pKd: below the threshold
HTRA4, P83105; [1]
  pKd: below the threshold
Inadl_2, Q8NI35; [1]
  pKd: below the threshold
Inadl_8, Q8NI35; [1]
  pKd: 3.55
Inadl_9, Q8NI35; [1]
  pKd: below the threshold
LIN7A, O14910; [1]
  pKd: below the threshold
LRRC7, Q96NW7; [1]
  pKd: below the threshold
MAGI2_2, Q86UL8; [1]
  pKd: below the threshold
NHERF2_2, Q15599; [1]
  pKd: 3.83
NOS1, P29475; [1]
  pKd: below the threshold
PARD3B_1, Q8TEW8; [1]
  pKd: below the threshold
PARD3_3, Q8TEW0; [1]
  pKd: below the threshold
PCLO, Q9Y6V0; [1]
  pKd: below the threshold
PDZRN4_1, Q6ZMN7; [1]
  pKd: below the threshold
PICK1, Q9NRD5; [1]
  pKd: 3.8
TIAM2, Q8IVF5; [1]
  pKd: below the threshold

B4: SARS-Cov2-N, P0DTC9 (peptide)
chain: QQSMSSADSTQA
APBA1_1, Q02410; [2]
  pKd: below the threshold
APBA1_2, Q02410; [2]
  pKd: below the threshold
ARHGEF12, Q9NZN5-2; [2]
  pKd: below the threshold
DLG2_2, Q15700; [2]
  pKd: below the threshold
DLG5_1, Q8TDM6; [2]
  pKd: below the threshold
FRMPD2_2, Q68DX3; [2]
  pKd: below the threshold
GOPC, Q9HD26; [2]
  pKd: below the threshold
GRIP1_2, Q9Y3R0; [2]
  pKd: below the threshold
GRIP1_3, Q9Y3R0; [2]
  pKd: below the threshold
GRIP1_4, Q9Y3R0; [2]
  pKd: below the threshold
GRIP2_3, Q9C0E4; [2]
  pKd: below the threshold
HTRA4, P83105; [2]
  pKd: below the threshold
Inadl_2, Q8NI35; [2]
  pKd: below the threshold
Inadl_8, Q8NI35; [2]
  pKd: below the threshold
Inadl_9, Q8NI35; [2]
  pKd: below the threshold
LIN7A, O14910; [2]
  pKd: below the threshold
LRRC7, Q96NW7; [2]
  pKd: below the threshold
MAGI2_2, Q86UL8; [2]
  pKd: below the threshold
NHERF2_2, Q15599; [2]
  pKd: below the threshold
NOS1, P29475; [2]
  pKd: below the threshold
PARD3B_1, Q8TEW8; [2]
  pKd: below the threshold
PARD3_3, Q8TEW0; [2]
  pKd: below the threshold
PCLO, Q9Y6V0; [2]
  pKd: below the threshold
PDZRN4_1, Q6ZMN7; [2]
  pKd: below the threshold
PICK1, Q9NRD5; [2]
  pKd: below the threshold
TIAM2, Q8IVF5; [2]
  pKd: below the threshold

B5: SLC22A9, Q8IVM8 (peptide)
chain: EDPRVEVTQF
APBA1_1, Q02410; [1]
  pKd: below the threshold
APBA1_2, Q02410; [1]
  pKd: below the threshold
ARHGEF12, Q9NZN5-2; [1]
  pKd: below the threshold
DLG2_2, Q15700; [1]
  pKd: below the threshold
DLG5_1, Q8TDM6; [1]
  pKd: below the threshold
FRMPD2_2, Q68DX3; [1]
  pKd: below the threshold
GOPC, Q9HD26; [1]
  pKd: below the threshold
GRIP1_2, Q9Y3R0; [1]
  pKd: below the threshold
GRIP1_3, Q9Y3R0; [1]
  pKd: below the threshold
GRIP1_4, Q9Y3R0; [1]
  pKd: below the threshold
GRIP2_3, Q9C0E4; [1]
  pKd: below the threshold
HTRA4, P83105; [1]
  pKd: below the threshold
Inadl_2, Q8NI35; [1]
  pKd: below the threshold
Inadl_8, Q8NI35; [1]
  pKd: below the threshold
Inadl_9, Q8NI35; [1]
  pKd: below the threshold
LIN7A, O14910; [1]
  pKd: below the threshold
LRRC7, Q96NW7; [1]
  pKd: below the threshold
MAGI2_2, Q86UL8; [1]
  pKd: below the threshold
NHERF2_2, Q15599; [1]
  pKd: 4.61
NOS1, P29475; [1]
  pKd: 3.63
PARD3B_1, Q8TEW8; [1]
  pKd: 4.26
PARD3_3, Q8TEW0; [1]
  pKd: below the threshold
PCLO, Q9Y6V0; [1]
  pKd: below the threshold
PDZRN4_1, Q6ZMN7; [1]
  pKd: below the threshold
PICK1, Q9NRD5; [1]
  pKd: below the threshold
TIAM2, Q8IVF5; [1]
  pKd: 4.15
